Assay results: article PMC3589825, “The AFF4 scaffold binds human P-TEFb adjacent to HIV Tat” (eLife, 2013)
GABA = NCCCC(=O)O

What was measured:
Details in all cases: both partners purified
[1] = target: T1, Tat-P-TEFb complex (HIV-1 Tat 1–86, CDK9 1–330, cyclin T1 1–264) (human | HIV-1, UniProt P50750;O60563;P04608); experiment: fluorescence polarisation
T1 construct: also called P-TEFb-Tat; not shown: His-tag, N-terminal, cleaved; copies: + +

[2] = target: T2, P-TEFb (CDK9 1–330 / cyclin T1 1–264) (human, UniProt P50750 1-330; O60563 1-264); experiment: fluorescence polarisation
T2 construct: also called positive transcription elongation factor b; source: High5 insect cells (baculovirus), purified (His-Trap, TEV digest, His-Trap); not shown: His-tag, N-terminal, cleaved
T2 sequence (P50750 1-330, chain 1 of 2): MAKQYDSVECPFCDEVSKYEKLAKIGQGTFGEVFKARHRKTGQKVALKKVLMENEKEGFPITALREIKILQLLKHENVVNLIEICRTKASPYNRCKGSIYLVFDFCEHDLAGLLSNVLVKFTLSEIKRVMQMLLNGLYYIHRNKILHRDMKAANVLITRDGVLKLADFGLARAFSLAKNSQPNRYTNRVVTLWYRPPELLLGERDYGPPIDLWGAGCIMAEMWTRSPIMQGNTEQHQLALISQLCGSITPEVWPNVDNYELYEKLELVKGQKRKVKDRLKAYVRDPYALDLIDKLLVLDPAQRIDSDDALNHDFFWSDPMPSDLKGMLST
T2 sequence (O60563 1-264, chain 2 of 2): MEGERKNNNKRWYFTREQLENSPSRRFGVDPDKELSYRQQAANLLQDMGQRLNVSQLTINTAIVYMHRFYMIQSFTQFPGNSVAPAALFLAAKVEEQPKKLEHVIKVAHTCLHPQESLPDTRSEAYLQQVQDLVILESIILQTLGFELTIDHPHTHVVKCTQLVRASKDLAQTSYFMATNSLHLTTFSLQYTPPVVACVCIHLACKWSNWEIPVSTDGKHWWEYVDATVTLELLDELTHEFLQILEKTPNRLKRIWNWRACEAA

[3] = target: T3, cyclin T1 (CycT1), purified alone, wild type (human, UniProt O60563 1-264); experiment: fluorescence polarisation
T3 construct: source: purified
T3 sequence (O60563 1-264): as the sequence (O60563 1-264, chain 2 of 2) above

[4] = target: T1, Tat-P-TEFb complex (HIV-1 Tat 1–86, …); experiment: fluorescence polarisation; competition titration of unlabeled AFF4 segments against 5 nM fluorescent peptide with 75 nM CycT1, 45 nM P-TEFb or 6 nM Tat-P-TEFb; 25 mM HEPES pH 7.5, 100 mM NaCl, 10% glycerol, 0.1% NP40, 0.5 mM TCEP
[5] = target: T2, P-TEFb (CDK9 1–330 / cyclin T1 1–264); experiment: as above
[6] = target: T3, cyclin T1 (CycT1), purified alone, wild …; experiment: as above

B1: fluorescein-labeled AFF4(32–67) peptide (peptide)
peptide: {FAM-GABA}-SPLFAEPYKVTSKEDKLSSRIQSMLGNYDEMKDFIG-NH2
notes: source: synthetic peptide (University of Utah DNA/Peptide Facility)
Kd [1]: 8.8 ± 0.8 nM | Kd [2]: 36 ± 6 nM | Kd [3]: 104 ± 17 nM

SPLFAEPYKVTSKEDKLSSRIQSMLGNYDEMKDFIG [unlabeled AFF4(32–67) peptide]
Kd [4]: 4.5 ± 0.6 nM | Kd [5]: 36 ± 4 nM | Kd [6]: 102 ± 10 nM

B2: AFF4(2–73) (domain or fragment, human, UniProt Q9UHB7 2-73, looked up)
chain: NREDRNVLRMKERERRNQEIQQGEDAFPPSSPLFAEPYKVTSKEDKLSSRIQSMLGNYDEMKDFIGDRSIPK
notes: source: E. coli Rosetta(DE3)pLysS, purified (His-Trap, TEV digest, His-Trap); not shown: His-tag, N-terminal, cleaved
Kd [4]: 0.85 ± 0.15 nM | Kd [5]: 10 ± 1 nM | Kd [6]: 130 ± 18 nM

B3: AFF4(2–363) (domain or fragment, human, UniProt Q9UHB7 2-363, looked up)
chain: NREDRNVLRMKERERRNQEIQQGEDAFPPSSPLFAEPYKVTSKEDKLSSRIQSMLGNYDEMKDFIGDRSIPKLVAIPKPTVPPSADEKSNPNFFEQRHGGSHQSSKWTPVGPAPSTSQSQKRSSGLQSGHSSQRTSAGSSSGTNSSGQRHDRESYNNSGSSSRKKGQHGSEHSKSRSSSPGKPQAVSSLNSSHSRSHGNDHHSKEHQRSKSPRDPDANWDSPSRVPFSSGQHSTQSFPPSLMSKSNSMLQKPTAYVRPMDGQESMEPKLSSEHYSSQSHGNSMTELKPSSKAHLTKLKIPSQPLDASASGDVSCVDEILKEMTHSWPPPLTAIHTPCKTEPSKFPFPTKESQQSNFGTGEQK
Kd [4]: 0.6 ± 0.1 nM | Kd [5]: 7 ± 1 nM
